Results as given in PMC3104520 (Biochemistry, 2011).
Read-outs that look alike come from different tables or passages of the source.

What was measured:
Experiment in all cases: diffusion NMR
[1] = molecular target: the molecule itself
[2] = molecular target: the molecule itself; remark: listed apart in the source
[3] = molecular target: the molecule itself; remark: listed apart in the source

B1: Surfactant protein A (SP-A), bovine (natural protein)
chain: not shown
In the case of B1, the “stoichiometry N” value [1] is reported as ~9 molecules, the “stoichiometry N” value [2] is reported as ~10 molecules and the “stoichiometry N” value [3] is reported as ~12 molecules.
